Test results: patent US20090158448A1 (NATIONAL UNIVERSITY CORPORATION TOKYO MEDICAL AND DENTAL …, published 2009)

T1: mutant MuSK (YF), myc tag (mouse, UniProt Q61006 22-868, limits assumed)
T1 construct: Mutation in the NPXY PTB domain target motif; also called YF mutant; not shown: myc tag
T1 sequence: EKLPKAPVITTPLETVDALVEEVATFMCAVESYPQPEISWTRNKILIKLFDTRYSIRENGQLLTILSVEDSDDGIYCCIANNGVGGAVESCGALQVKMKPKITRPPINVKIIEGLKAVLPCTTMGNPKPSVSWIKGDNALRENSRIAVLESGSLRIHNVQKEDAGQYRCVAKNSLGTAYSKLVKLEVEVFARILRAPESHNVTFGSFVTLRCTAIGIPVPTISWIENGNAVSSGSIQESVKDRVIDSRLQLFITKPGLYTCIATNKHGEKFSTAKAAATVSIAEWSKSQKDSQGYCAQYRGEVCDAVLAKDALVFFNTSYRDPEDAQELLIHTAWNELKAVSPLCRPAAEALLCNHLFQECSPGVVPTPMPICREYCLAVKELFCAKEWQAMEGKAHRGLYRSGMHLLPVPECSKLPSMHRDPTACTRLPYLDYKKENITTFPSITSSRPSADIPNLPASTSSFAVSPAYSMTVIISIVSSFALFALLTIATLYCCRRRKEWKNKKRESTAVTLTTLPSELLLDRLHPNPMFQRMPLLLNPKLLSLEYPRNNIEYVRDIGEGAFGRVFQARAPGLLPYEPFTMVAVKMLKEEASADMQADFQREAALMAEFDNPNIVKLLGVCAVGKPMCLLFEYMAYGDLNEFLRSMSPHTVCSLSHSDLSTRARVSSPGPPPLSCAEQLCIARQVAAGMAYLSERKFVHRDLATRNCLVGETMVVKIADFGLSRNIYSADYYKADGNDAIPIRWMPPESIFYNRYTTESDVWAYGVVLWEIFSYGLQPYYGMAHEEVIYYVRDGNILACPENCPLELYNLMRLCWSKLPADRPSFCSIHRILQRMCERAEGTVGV

T2: mutant MuSK (NA), myc tag (mouse, UniProt Q61006 22-868, limits assumed)
T2 construct: Mutation in the NPXY PTB domain target motif; also called NA mutant; not shown: myc tag
T2 sequence: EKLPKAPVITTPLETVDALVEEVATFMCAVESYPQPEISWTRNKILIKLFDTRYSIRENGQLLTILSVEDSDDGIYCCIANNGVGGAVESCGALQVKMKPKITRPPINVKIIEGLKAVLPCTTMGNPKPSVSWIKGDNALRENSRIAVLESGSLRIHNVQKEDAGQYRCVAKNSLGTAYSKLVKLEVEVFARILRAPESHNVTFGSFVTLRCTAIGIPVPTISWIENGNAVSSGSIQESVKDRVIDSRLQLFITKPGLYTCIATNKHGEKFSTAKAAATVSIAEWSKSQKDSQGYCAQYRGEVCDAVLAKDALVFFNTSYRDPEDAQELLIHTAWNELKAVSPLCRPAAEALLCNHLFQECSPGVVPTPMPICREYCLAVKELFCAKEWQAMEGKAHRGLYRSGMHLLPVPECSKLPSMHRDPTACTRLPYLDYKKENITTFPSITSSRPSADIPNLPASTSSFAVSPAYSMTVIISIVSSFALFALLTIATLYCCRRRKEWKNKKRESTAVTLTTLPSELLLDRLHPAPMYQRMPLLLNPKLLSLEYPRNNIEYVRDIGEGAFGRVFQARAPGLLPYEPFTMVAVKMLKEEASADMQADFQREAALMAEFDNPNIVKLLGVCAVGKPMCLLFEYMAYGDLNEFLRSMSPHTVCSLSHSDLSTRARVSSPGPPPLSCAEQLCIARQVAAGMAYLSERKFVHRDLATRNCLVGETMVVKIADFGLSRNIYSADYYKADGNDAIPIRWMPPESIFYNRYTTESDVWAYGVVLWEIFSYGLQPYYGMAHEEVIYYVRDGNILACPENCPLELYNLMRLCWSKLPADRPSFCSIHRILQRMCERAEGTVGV

T3: wild type (WT) mouse MuSK fused to myc tag (mouse, UniProt Q61006 22-868, limits assumed)
T3 construct: also called wild type MuSK (WT); muscle-specific tyrosine kinase; not shown: myc tag
T3 sequence: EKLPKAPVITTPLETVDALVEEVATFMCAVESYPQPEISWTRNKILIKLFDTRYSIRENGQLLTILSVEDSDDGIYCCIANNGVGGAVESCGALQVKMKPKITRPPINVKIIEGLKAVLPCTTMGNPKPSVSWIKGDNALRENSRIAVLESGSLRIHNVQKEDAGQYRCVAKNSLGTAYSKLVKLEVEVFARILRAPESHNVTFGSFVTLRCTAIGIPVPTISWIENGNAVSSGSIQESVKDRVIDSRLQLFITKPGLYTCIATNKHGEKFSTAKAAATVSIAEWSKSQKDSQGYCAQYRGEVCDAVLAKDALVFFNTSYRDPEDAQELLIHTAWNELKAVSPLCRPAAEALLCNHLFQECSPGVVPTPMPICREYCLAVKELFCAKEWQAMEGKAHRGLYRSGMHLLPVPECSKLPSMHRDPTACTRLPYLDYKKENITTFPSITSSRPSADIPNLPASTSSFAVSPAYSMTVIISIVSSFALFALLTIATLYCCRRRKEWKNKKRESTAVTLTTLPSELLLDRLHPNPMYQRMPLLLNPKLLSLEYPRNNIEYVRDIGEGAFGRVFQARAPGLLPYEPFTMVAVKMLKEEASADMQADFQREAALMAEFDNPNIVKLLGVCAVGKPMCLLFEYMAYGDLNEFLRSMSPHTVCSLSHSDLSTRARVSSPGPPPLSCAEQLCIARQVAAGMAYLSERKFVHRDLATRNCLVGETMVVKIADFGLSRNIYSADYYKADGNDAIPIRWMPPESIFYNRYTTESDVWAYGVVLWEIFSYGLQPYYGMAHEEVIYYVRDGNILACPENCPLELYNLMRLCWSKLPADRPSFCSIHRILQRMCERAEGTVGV


What was measured:
Test in all cases: co-immunoprecipitation (anti-myc) and western, 293T cells
[1] = molecular target: T1, mutant MuSK (YF), myc tag
Method: (§1) Immunoprecipitation of whole cell lysate (WCL) obtained from each transformed cell strain was carried out using an anti-myc tag antibody, and thus an immunoprecipitate (IP: αmyc) was obtained. Then, a western blot analysis was performed for the whole cell lysate and immunoprecipitate. The antibodies used were the same as the antibodies described above.
(§2) Then, immunoprecipitation of whole cell lysate (WCL) obtained from each transformed cell strain was carried out, and a western analysis was performed on the resulting immunoprecipitate (IP: αmyc). The antibodies used were the same as the antibodies described above.

[2] = molecular target: T2, mutant MuSK (NA), myc tag
Method: as §1, §2

[3] = molecular target: T3, wild type (WT) mouse MuSK fused to myc …
Method: as §1, §2

binding result [1] | binding result [2] | binding result [3] | Binder
no binding | no binding | – | wild type human Dok-7 protein (other, also called WT; polypeptide of the present invention) MTEAALVEGQVKLRDGKKWKSRWLVLRKPSPVADCLLMLVYKDKSERIKGLRERSSLTLEDICGLEPGLPYEGLVHTLAIVCLSQAIMLGFDSHEAMCAWDARIRYALGEVHRFHVTVAPGTKLESGPATLHLCNDVLVLARDIPPAVTGQWKLSDLRRYGAVPSGFIFEGGTRCGYWAGVFFLSSAEGEQISFLFDCIVRGISPTKGPFGLRPVLPDPSPPGPSTVEERVAQEALETLQLEKRLSLLSHAGRPGSGGDDRSLSSSSSEASHLDVSASSRLTAWPEQSSSSASTSQEGPRPAAAQAAGEAMVGASRPPPKPLRPRQLQEVGRQSSSDSGIATGSHSSYSSSLSSYAGSSLDVWRATDELGSLLSLPAAGAPEPSLCTCLPGTVEYQVPTSLRAHYDTPRSLCLAPRDHSPPSQGSPGNSAARDSGGQTSAGCPSGWLGTRRRGLVMEAPQGSEATLPGPAPGEPWEAGGPHAGPPPAFFSACPVCGGLKVNPPP
– | – | no binding | mutant Dok-7 (RA) (other, also called RA of Dok-7) MTEAALVEGQVKLRDGKKWKSRWLVLRKPSPVADCLLMLVYKDKSERIKGLRERSSLTLEDICGLEPGLPYEGLVHTLAIVCLSQAIMLGFDSHEAMCAWDARIRYALGEVHRFHVTVAPGTKLESGPATLHLCNDVLVLARDIPPAVTGQWKLSDLAAYGAVPSGFIFEGGTACGYWAGVFFLSSAEGEQISFLFDCIVRGISPTKGPFGLRPVLPDPSPPGPSTVEERVAQEALETLQLEKRLSLLSHAGRPGSGGDDRSLSSSSSEASHLDVSASSRLTAWPEQSSSSASTSQEGPRPAAAQAAGEAMVGASRPPPKPLRPRQLQEVGRQSSSDSGIATGSHSSYSSSLSSYAGSSLDVWRATDELGSLLSLPAAGAPEPSLCTCLPGTVEYQVPTSLRAHYDTPRSLCLAPRDHSPPSQGSPGNSAARDSGGQTSAGCPSGWLGTRRRGLVMEAPQGSEATLPGPAPGEPWEAGGPHAGPPPAFFSACPVCGGLKVNPPP
